# Assays:
# [1] = Irritation at the site of injection and clinical safety in healthy volunteers (Example 8); type: in vivo, human (healthy male volunteers); conditions: s.c.
# Method: Bioavailability of erythropoietin after subcutaneous administration of erythropoietin in a hydroxypropyl-β-cyclodextrin formulation in comparison with formulations using human serum albumin in healthy volunteers was assessed in the following study.
# Six healthy male volunteers with ages ranging between 30 and 40 (median 32) years, body weights between 69 and 80 (median 75) kg were administered subcutaneously in the upper arm 1 ml of an EPO solution (4000 I.U./ml) according to a randomized cross-over design. A four-week interval occured between the two tests. The two formulations of EPO were
# Irritation at the site of injection was scored before and 2, 4, and 24 hours after each administration. No oedema, erythema, itching or pain was reported in any of the volunteers at any time during the whole study. Both formulations are therefore equally well tolerated.
# [2] = -80° C.; cited from earlier work
substance,measurement,setting,value
EPO: circulating glycoprotein hormone which induces an increase in red cell mass,blood pressure or heart rate,[1],Nor did subcutaneous administration of EPO influence blood pressure or heart rate
same,haematology and serum biochemistry,[1],No clinically important changes
same,decrease in activity in aqueous solution,[2],substantial decrease in activity

# Reference: patent US5376632A, “Cyclodextrin based erythropoietin formulation” (priority 1992, dated 1994)
